Source: US20160114000A1 (Merck Sharp & Dohme, published 2016)
*1 amine or outer side, *2 acyl side, *3 side chain or, on linkers, in order; H or OH if unused. Where a SMILES comes first, the peptide text is derived from it. Where no end group is shown, it is not given here. Side-chain parts run from the residue outwards. [ ]: non-standard residue; d: D form. The star is where a group is joined. γGlu = O=C(O)[C@H](CCC(=O)[*:2])N[*:1]; Palmitoyl = CCCCCCCCCCCCCCCC(=O)*; Nle = CCCC[C@H](N)C(=O)O; Aib = CC(C)(N)C(=O)O

B1: Co-agonist Peptide 5 (peptide)
peptide: H[dS]QGTFTSDK([γGlu-γGlu-Palmitoyl])SKYLDARAAQDFVQWLLDT-NH2
modifications: N-terminus assumed
SMILES: CCCCCCCCCCCCCCCC(=O)N[C@@H](CCC(=O)N[C@@H](CCC(=O)NCCCC[C@H](NC(=O)[C@H](CC(=O)O)NC(=O)[C@H](CO)NC(=O)[C@@H](NC(=O)[C@H](Cc1ccccc1)NC(=O)[C@@H](NC(=O)CNC(=O)[C@H](CCC(N)=O)NC(=O)[C@@H](CO)NC(=O)[C@@H](N)Cc1c[nH]cn1)[C@@H](C)O)[C@@H](C)O)C(=O)N[C@@H](CO)C(=O)N[C@@H](CCCCN)C(=O)N[C@@H](Cc1ccc(O)cc1)C(=O)N[C@@H](CC(C)C)C(=O)N[C@@H](CC(=O)O)C(=O)N[C@@H](C)C(=O)N[C@@H](CCCNC(=N)N)C(=O)N[C@@H](C)C(=O)N[C@@H](C)C(=O)N[C@@H](CCC(N)=O)C(=O)N[C@@H](CC(=O)O)C(=O)N[C@@H](Cc1ccccc1)C(=O)N[C@H](C(=O)N[C@@H](CCC(N)=O)C(=O)N[C@@H](Cc1c[nH]c2ccccc12)C(=O)N[C@@H](CC(C)C)C(=O)N[C@@H](CC(C)C)C(=O)N[C@@H](CC(=O)O)C(=O)N[C@H](C(N)=O)[C@@H](C)O)C(C)C)C(=O)O)C(=O)O
B2: Co-agonist Peptide 1 (peptide)
peptide: H[dS]QGTFTSDK([γGlu-Palmitoyl])SKYLDARAAQDFVQWLLDT-NH2
modifications: N-terminus assumed
SMILES: CCCCCCCCCCCCCCCC(=O)N[C@@H](CCC(=O)NCCCC[C@H](NC(=O)[C@H](CC(=O)O)NC(=O)[C@H](CO)NC(=O)[C@@H](NC(=O)[C@H](Cc1ccccc1)NC(=O)[C@@H](NC(=O)CNC(=O)[C@H](CCC(N)=O)NC(=O)[C@@H](CO)NC(=O)[C@@H](N)Cc1c[nH]cn1)[C@@H](C)O)[C@@H](C)O)C(=O)N[C@@H](CO)C(=O)N[C@@H](CCCCN)C(=O)N[C@@H](Cc1ccc(O)cc1)C(=O)N[C@@H](CC(C)C)C(=O)N[C@@H](CC(=O)O)C(=O)N[C@@H](C)C(=O)N[C@@H](CCCNC(=N)N)C(=O)N[C@@H](C)C(=O)N[C@@H](C)C(=O)N[C@@H](CCC(N)=O)C(=O)N[C@@H](CC(=O)O)C(=O)N[C@@H](Cc1ccccc1)C(=O)N[C@H](C(=O)N[C@@H](CCC(N)=O)C(=O)N[C@@H](Cc1c[nH]c2ccccc12)C(=O)N[C@@H](CC(C)C)C(=O)N[C@@H](CC(C)C)C(=O)N[C@@H](CC(=O)O)C(=O)N[C@H](C(N)=O)[C@@H](C)O)C(C)C)C(=O)O
B3: Comparator Co-agonist Peptide 6 (peptide)
peptide: HXQGTFTSDKSKYLDERAAQDFVQWLLDT
modifications: D-Ser at 2; Lys 10 conjugated to γEγE-C16 (palmitoyl); C-terminal amide
B4: Co-agonist Peptide 14 (peptide)
peptide: HXQGTXTSDKSKYLDERAAQDFVQWLLDT
modifications: D-Ser at 2; threo-β-phenylserine (tβP) at 6; Lys 10 conjugated to γEγE-C16 (palmitoyl); C-terminal amide
B5: Co-agonist Peptide 7 (peptide)
peptide: Ac-HAQGTFTSDK([γGlu-γGlu-Palmitoyl])SKYLDERAAQDFVQWLLDT-NH2
SMILES: CCCCCCCCCCCCCCCC(=O)N[C@@H](CCC(=O)N[C@@H](CCC(=O)NCCCC[C@H](NC(=O)[C@H](CC(=O)O)NC(=O)[C@H](CO)NC(=O)[C@@H](NC(=O)[C@H](Cc1ccccc1)NC(=O)[C@@H](NC(=O)CNC(=O)[C@H](CCC(N)=O)NC(=O)[C@H](C)NC(=O)[C@H](Cc1c[nH]cn1)NC(C)=O)[C@@H](C)O)[C@@H](C)O)C(=O)N[C@@H](CO)C(=O)N[C@@H](CCCCN)C(=O)N[C@@H](Cc1ccc(O)cc1)C(=O)N[C@@H](CC(C)C)C(=O)N[C@@H](CC(=O)O)C(=O)N[C@@H](CCC(=O)O)C(=O)N[C@@H](CCCNC(=N)N)C(=O)N[C@@H](C)C(=O)N[C@@H](C)C(=O)N[C@@H](CCC(N)=O)C(=O)N[C@@H](CC(=O)O)C(=O)N[C@@H](Cc1ccccc1)C(=O)N[C@H](C(=O)N[C@@H](CCC(N)=O)C(=O)N[C@@H](Cc1c[nH]c2ccccc12)C(=O)N[C@@H](CC(C)C)C(=O)N[C@@H](CC(C)C)C(=O)N[C@@H](CC(=O)O)C(=O)N[C@H](C(N)=O)[C@@H](C)O)C(C)C)C(=O)O)C(=O)O
B6: Co-agonist Peptide 2 (peptide)
peptide: H[dS]QGTFTSDK([γGlu-γGlu-Palmitoyl])SKYLDVRRAQDFVQWLLDT-NH2
modifications: not fully specified; printed as HsQGTFTSDK(γEγEC16)SKYLDVRRAQDFVQWLLDT-NH2
B7: Co-agonist Peptide 4 (peptide)
peptide: H[Aib]VGTFTSDK([γGlu-γGlu-Palmitoyl])SKYLD[Aib]RAAQDFVQWL[Nle]DT-NH2
modifications: N-terminus assumed
SMILES: CCCCCCCCCCCCCCCC(=O)N[C@@H](CCC(=O)N[C@@H](CCC(=O)NCCCC[C@H](NC(=O)[C@H](CC(=O)O)NC(=O)[C@H](CO)NC(=O)[C@@H](NC(=O)[C@H](Cc1ccccc1)NC(=O)[C@@H](NC(=O)CNC(=O)[C@@H](NC(=O)C(C)(C)NC(=O)[C@@H](N)Cc1c[nH]cn1)C(C)C)[C@@H](C)O)[C@@H](C)O)C(=O)N[C@@H](CO)C(=O)N[C@@H](CCCCN)C(=O)N[C@@H](Cc1ccc(O)cc1)C(=O)N[C@@H](CC(C)C)C(=O)N[C@@H](CC(=O)O)C(=O)NC(C)(C)C(=O)N[C@@H](CCCNC(=N)N)C(=O)N[C@@H](C)C(=O)N[C@@H](C)C(=O)N[C@@H](CCC(N)=O)C(=O)N[C@@H](CC(=O)O)C(=O)N[C@@H](Cc1ccccc1)C(=O)N[C@H](C(=O)N[C@@H](CCC(N)=O)C(=O)N[C@@H](Cc1c[nH]c2ccccc12)C(=O)N[C@@H](CC(C)C)C(=O)N[C@@H](CCCC)C(=O)N[C@@H](CC(=O)O)C(=O)N[C@H](C(N)=O)[C@@H](C)O)C(C)C)C(=O)O)C(=O)O

molecular target: T1, human GCGR (Homo sapiens, UniProt P47871); assay: cAMP protocol, cells expressing human GCGR; assay type: cell-based; details: ratio of EC50 at human GCGR to EC50 at human GLP1R
T1 construct: expressed in transfected cells; grown under Geneticin and Hygromycin selection
T1 sequence (P47871 26-477): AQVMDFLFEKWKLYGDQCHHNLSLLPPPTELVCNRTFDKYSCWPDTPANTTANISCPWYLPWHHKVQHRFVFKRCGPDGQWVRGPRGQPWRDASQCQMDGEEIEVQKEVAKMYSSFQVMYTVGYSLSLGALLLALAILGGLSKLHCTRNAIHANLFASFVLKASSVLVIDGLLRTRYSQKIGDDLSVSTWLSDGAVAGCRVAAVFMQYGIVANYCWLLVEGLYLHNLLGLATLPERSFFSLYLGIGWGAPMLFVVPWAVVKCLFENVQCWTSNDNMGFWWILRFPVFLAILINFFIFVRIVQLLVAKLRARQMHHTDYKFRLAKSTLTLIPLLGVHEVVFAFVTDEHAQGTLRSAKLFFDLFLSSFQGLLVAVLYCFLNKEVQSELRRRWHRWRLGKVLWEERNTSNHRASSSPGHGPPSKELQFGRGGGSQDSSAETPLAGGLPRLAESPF
Protocol: The cAMP protocol was as follows.
Peptides were dissolved in 100% DMSO and serially diluted to generate 11 point titrations. The peptide solutions were then transferred into 384-well assay plates (150 nL/well). Assay ready frozen cells expressing human GLP-1R or human GCGR were suspended in growth media consisting of DMEM/F12 medium (GIBCO), 10% FBS (GIBCO), lx P/S (GIBCO), 800 μg/mL Geneticin (GIBCO), and 300 μg/mL Hygromycin (Invitrogen). Cells were then diluted in assay buffer consisting of PBS (GIBCO), 7.5% BSA (Perkin Elmer), 100 μM RO 20-1724 (Sigma), and 20% human serum (MP Biomedical). The cell suspensions (15 μL) were then added to the assay plates containing the peptide solutions (30,000 cells/well for human GCGR; 20,000 cells/well for GLP1R). The cells were incubated for 1 hour at room temperature in the dark. Production of cAMP was determined using HitHunter™ cAMPXS kits (DiscoverX). ED buffer (20 μL) was then added to each well and the plates were incubated for 1 hour at room temperature in the dark. Subsequently, EA buffer (20 μL) was added to each well, and the plates were incubated for 1-18 hours at room temperature in the dark. Luminescence was measured using an EnVision Multilabel plate reader (Perkin Elmer). EC50 values were calculated using ADA data analyzer software.

Compared with `CCCCCCCCCCCCCCCC(=O)N[C@@H](CCC(=O)N[C@@H](CCC(=O)NCCCC[C@H](NC(=O)[C@H](CC(=O)O)NC(=O)[C@H](CO)NC(=O)[C@@H](NC(=O)[C@H](Cc1ccccc1)NC(=O)[C@@H](NC(=O)CNC(=O)[C@H](CCC(N)=O)NC(=O)[C@@H](CO)NC(=O)[C@@H](N)Cc1c[nH]cn1)[C@@H](C)O)[C@@H](C)O)C(=O)N[C@@H](CO)C(=O)N[C@@H](CC(C)C)C(=O)N[C@@H](Cc1ccc(O)cc1)C(=O)N[C@@H](CC(C)C)C(=O)N[C@@H](CC(=O)O)C(=O)N[C@@H](CCC(=O)O)C(=O)N[C@@H](CCCNC(=N)N)C(=O)N[C@@H](C)C(=O)N[C@@H](C)C(=O)N[C@@H](CCC(N)=O)C(=O)N[C@@H](CC(=O)O)C(=O)N[C@@H](Cc1ccccc1)C(=O)N[C@H](C(=O)N[C@@H](CCC(N)=O)C(=O)N[C@@H](Cc1c[nH]c2ccccc12)C(=O)N[C@@H](CC(C)C)C(=O)N[C@@H](CC(C)C)C(=O)N[C@@H](CC(=O)O)C(=O)N[C@H](C(N)=O)[C@@H](C)O)C(C)C)C(=O)O)C(=O)O` [SEQ ID NO: 16] (H-H[dS]QGTFTSDK([γGlu-γGlu-Palmitoyl])SLYLDERAAQDFVQWLLDT-NH2), `CCCCCCCCCCCCCCCC(=O)N[C@@H](CCC(=O)N[C@@H](CCC(=O)NCCCC[C@H](NC(=O)[C@H](CC(=O)O)NC(=O)[C@H](CO)NC(=O)[C@@H](NC(=O)[C@H](Cc1ccccc1)NC(=O)[C@@H](NC(=O)CNC(=O)[C@H](CCC(N)=O)NC(=O)[C@@H](CO)NC(=O)[C@@H](N)Cc1c[nH]cn1)[C@@H](C)O)[C@@H](C)O)C(=O)N[C@@H](CO)C(=O)N[C@@H](CCCCN)C(=O)N[C@@H](Cc1ccc(O)cc1)C(=O)N[C@@H](CC(C)C)C(=O)N[C@@H](CCC(=O)O)C(=O)N[C@@H](C)C(=O)N[C@@H](CCCNC(=N)N)C(=O)N[C@@H](C)C(=O)N[C@@H](C)C(=O)N[C@@H](CCC(N)=O)C(=O)N[C@@H](CC(=O)O)C(=O)N[C@@H](Cc1ccccc1)C(=O)N[C@H](C(=O)N[C@@H](CCC(N)=O)C(=O)N[C@@H](Cc1c[nH]c2ccccc12)C(=O)N[C@@H](CC(C)C)C(=O)N[C@@H](CC(C)C)C(=O)N[C@@H](CC(=O)O)C(=O)N[C@H](C(N)=O)[C@@H](C)O)C(C)C)C(=O)O)C(=O)O` [SEQ ID NO: 13] is lower in “hGCGR/hGLP1R (hTone)” value: 0.91 for the first, 0.90 for the second.

With `CCCCCCCCCCCCCCCC(=O)N[C@@H](CCC(=O)N[C@@H](CCC(=O)NCCCC[C@H](NC(=O)[C@H](CC(=O)O)NC(=O)[C@H](CO)NC(=O)[C@@H](NC(=O)[C@H](Cc1ccccc1)NC(=O)[C@@H](NC(=O)CNC(=O)[C@H](CCC(N)=O)NC(=O)C1(NC(=O)[C@@H](N)Cc2c[nH]cn2)CCC1)[C@@H](C)O)[C@@H](C)O)C(=O)N[C@@H](CO)C(=O)N[C@@H](CCCCN)C(=O)N[C@@H](Cc1ccc(O)cc1)C(=O)N[C@@H](CC(C)C)C(=O)N[C@@H](CC(=O)O)C(=O)N[C@@H](CCC(=O)O)C(=O)N[C@@H](CCCNC(=N)N)C(=O)N[C@@H](C)C(=O)N[C@@H](C)C(=O)N[C@@H](CCC(N)=O)C(=O)N[C@@H](CC(=O)O)C(=O)N[C@@H](Cc1ccccc1)C(=O)N[C@H](C(=O)N[C@@H](CCC(N)=O)C(=O)N[C@@H](Cc1c[nH]c2ccccc12)C(=O)N[C@@H](CC(C)C)C(=O)N[C@@H](CC(C)C)C(=O)N[C@@H](CC(=O)O)C(=O)N[C@H](C(N)=O)[C@@H](C)O)C(C)C)C(=O)O)C(=O)O` [SEQ ID NO: 18] the “hGCGR/hGLP1R (hTone)” value was 1.25.

molecular target: human GLP-1 receptor (human, UniProt P43220 24-463); assay: cell-based or functional assay; details: not given

B1 and B2 are within 1.5-fold of each other in “GLPR1 EC50 (nM) human; cAMP production (HitHunter cAMPXS), 20% human serum” value: 0.033 nM for the first, 0.048 nM for the second.

For B3, the “GLPR1 EC50 (nM) human; cAMP production (HitHunter cAMPXS), 20% human serum” value was 0.007 nM.

molecular target: human glucagon receptor (human, UniProt P47871 26-477); assay: cell-based or functional assay; details: not given
Sequence (P47871 26-477): as above

B1 and B2 are within 1.5-fold of each other in “GCGR EC50 (nM) human; cAMP production (HitHunter cAMPXS), 20% human serum” value: 0.03 nM for the first, 0.042 nM for the second.

B3 was tested, and the “GCGR EC50 (nM) human; cAMP production (HitHunter cAMPXS), 20% human serum” value was 0.009 nM.

First: B1
Second: B4
The “hGCGR/hGLP1R (hTone): ratio of cAMP EC50 at human GCGR to cAMP EC50 at human GLP1R” value (“hGCGR/hGLP1R (hTone): ratio of cAMP EC50” for short) of the first is lower: 0.9 ratio for the first, 1.02 ratio for the second.

Compared with B2, B3 is higher in “hGCGR/hGLP1R (hTone): ratio of cAMP EC50” value: 0.88 ratio for the first, 1.3 ratio for the second.

Going from B5 to B6, the “hGCGR/hGLP1R (hTone): ratio of cAMP EC50” value falls from 1 ratio to 0.3 ratio.

For B7, the “hGCGR/hGLP1R (hTone): ratio of cAMP EC50” value was 8.98 ratio.
